Legend:
[1] = biological target: CaVβ2b with N-terminal deca-histidine tag (purified from E. coli); test: isothermal titration calorimetry, purified proteins, 25 °C
[2] = biological target: CaVβ2b with N-terminal deca-histidine tag (purified from E. coli); test: isothermal titration calorimetry, nb.F3 injected into CaVβ2b, T=298K
[3] = biological target: CaVβ2b with N-terminal deca-histidine tag (purified from E. coli); test: isothermal titration calorimetry, purified proteins, 25 °C, nb.F3 injected into CaVβ2b

B1: nb.F3 with N-terminal deca-histidine tag (purified from E. coli) (VHH)
VHH: QVQLQESGGGLVQAGGSLRLSCVASGRTFSSYAMGWFRQAPGKEREFVAAIDWSGGTASHADSVKGRFTISRDNAKNTVYLQMNSLKPEDTAVYYCAASSYWSRSVDEYDYWGQGTQVTVSS
For B1, the stoichiometry [1] was 1, the Ka [2] was 1.07e+08 M⁻¹ and the N (stoichiometry) [2] was 0.93. The ΔH [2] was -14.9 kcal/mol, the ΔS (cal mol-1 K-1) [2] was -13.8 and the Kd [3] was 13.2 nM.

Source: US20220033493A1
